Molecular target: the molecule itself
Assay: SEC

B1: cytoplasmic domain of QseC (QseC-CD) (domain or fragment, E. coli)
chain: RERRFTSDAAHELRSPLTALKVQTEVAQLSDDDPQARKKALLQLHSGIDRATRLVDQLLTLSRLDSLDNLQDVAEIPLEDLLQSSVMDIYHTAQQAKIDVRLTLNAHSIKRTGQPLLLSLLVRNLLDNAVRYSPQGSVVDVTLNADNFIVRDNGPGVTPEALARIGERFYRPPGQTATGSGLGLSIVQRIAKLHGMNVEFGNAEQGGFEAKVSWLE
  stoichiometry N: 2

— article PMC3526665 (Protein and peptide letters, 2010)
